The series can be described thus: protein stability index of a GFP-peptide fusion (GPS, HEK-293T) (PSI 1-6); higher = more stable. As to conditions: c terminus: a fixed tail appended.

± gives the standard deviation.
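Also: 24-mer peptide tiles fused after GFP, lentivirally expressed, FACS-sorted into six equal bins by GFP/DsRed ratio, decoded by Illumina sequencing, PSI is the read-weighted mean bin number.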

Regarding DSTGYMEVSLDSLDLRVKGILSSQ [EHMT1], the protein stability index is, setting by setting: (treatment: DMSO) 3.08 ± 0.36; (treatment: MLN4924 1 uM, 8 h) 3.17 ± 0.29.
On to DTDAEGDDFELLDQSELSQLDPAS [RETREG3], for which the protein stability index was found to be 5.61 ± 0.065 (treatment: DMSO) and 5.57 ± 0.16 (treatment: MLN4924 1 uM, 8 h).
With DTETFTWSQPITTGKAPSPRAAHA [KLHDC2], the protein stability index reads like this: (treatment: DMSO) 4.31 ± 0.082; (treatment: MLN4924 1 uM, 8 h) 4.41 ± 0.51.
DTFQKELMCFDPDTDKWIQKAPMT [KLHL13]: the protein stability index runs as follows: (treatment: DMSO) 4.16 ± 0.28; (treatment: MLN4924 1 uM, 8 h) 3.87 ± 0.15.
Take DTMLEEVENKEKDSNMPHFQTLQA [CEP70]: the protein stability index by setting is: (treatment: DMSO) 4.94 ± 0.22; (treatment: MLN4924 1 uM, 8 h) 4.93 ± 0.15.
Take DVKAMGPLVLTEVLFNEKIREQIK [EIF5]: the protein stability index was 2.39 ± 0.11 (treatment: DMSO) and 2.28 ± 0.34 (treatment: MLN4924 1 uM, 8 h).
DVKCYQGTDIVRGCDPLVKPVGRQ [ADAMTSL2] came in with a protein stability index (treatment: DMSO) of 3.68 ± 0.3 and a protein stability index (treatment: MLN4924 1 uM, 8 h) of 3.88 ± 0.27.
The like results for DVTAKNIWLAESVLDILTEQREWV [INTS3] were, in that order, 2.3 ± 0.24 and 2.65 ± 0.33.
Sequence DYVQLENQWETPPEDLQTDLAKLV [ZNF449] showed a protein stability index (treatment: DMSO) of 4.19 ± 0.3 and a protein stability index (treatment: MLN4924 1 uM, 8 h) of 4.31 ± 0.059.
For EAGYYFFNGNYKVDSPKNFNIAGT [ADAMTSL2], the protein stability index amounted to 2.34 ± 0.35 (treatment: DMSO) and 2.44 ± 0.31 (treatment: MLN4924 1 uM, 8 h).
Consider EAQERELRKREKAEEKERRRKEYD [LRRC59], for which the protein stability index by setting is: (treatment: DMSO) 5.4 ± 0.18; (treatment: MLN4924 1 uM, 8 h) 5.49 ± 0.3.
EASNFQMDRKTRFIIHGFIDKGDE [PNLIPRP1]: the protein stability index reads like this: (treatment: DMSO) 3.26 ± 0.21; (treatment: MLN4924 1 uM, 8 h) 3.27 ± 0.27.
Sequence EAVPARGEPQQDCCVKTELLGEET [EHMT1] showed a protein stability index (treatment: DMSO) of 5.52 ± 0.27 and a protein stability index (treatment: MLN4924 1 uM, 8 h) of 5.65 ± 0.26.
With ECEKSALTPGFSDNAIMLFSPDFT [FAN1], the protein stability index reads like this: (treatment: DMSO) 3.49 ± 0.19; (treatment: MLN4924 1 uM, 8 h) 3.79 ± 0.26.
With ECSNIPLSQPQQGEAMLANFKPRG [GAN], the protein stability index came to 3.5 ± 0.9 (treatment: DMSO) and 3.97 ± 0.34 (treatment: MLN4924 1 uM, 8 h).
EDEGFVREEEDRALPENEFKKQIW [KCNA4]: the protein stability index reads like this: (treatment: DMSO) 5.18 ± 0.17; (treatment: MLN4924 1 uM, 8 h) 5.19 ± 0.2.
Consider EDESQSEEENDYRNLDASPTYKGL [CEP70], for which the protein stability index reads like this: (treatment: DMSO) 5.27 ± 0.23; (treatment: MLN4924 1 uM, 8 h) 5.41 ± 0.15.
In the same order, the values of EDITYVLKPTFTKQQIANLDKQAK [USP39] are 4.01 ± 0.097 and 4.17 ± 0.13.
As for EDLEWERYRGRGSEEYRAPRPQSE [CHGB], the protein stability index was determined as 5.19 ± 0.38 (treatment: DMSO) and 5.33 ± 0.23 (treatment: MLN4924 1 uM, 8 h).
The like results for EDSSLPSINALLQAEVLSRQITSP [HNF4A] were, in that order, 4.25 ± 0.16 and 4.27 ± 0.093.
Turning to EEDEQLRALVRQFGQQDWKFLASH [MYBL2], the protein stability index is, setting by setting: (treatment: DMSO) 3.17 ± 0.36; (treatment: MLN4924 1 uM, 8 h) 3.46 ± 0.17.
In the same order, the values of EEEAGQTSIEPSKSSIIPFRALKR [ZER1] are 4.87 ± 0.26 and 5.09 ± 0.16.
With EEHWVGLKKEPGHPWKWSNGKEFN [CD69], the protein stability index is, setting by setting: (treatment: DMSO) 3.19 ± 0.27; (treatment: MLN4924 1 uM, 8 h) 3.33 ± 0.21.
With EEKERIGQFVFARDAKAAMAGRLM [AASDHPPT], the protein stability index came to 3.36 ± 0.19 (treatment: DMSO) and 3.43 ± 0.32 (treatment: MLN4924 1 uM, 8 h).
EEPSKYGVVVCEADTGRIHRFVEK [GMPPB]: the protein stability index worked out at 3.94 ± 0.32 (treatment: DMSO) and 3.99 ± 0.18 (treatment: MLN4924 1 uM, 8 h).
Regarding EERERKRRKEEEVQQQKLAEERRR [FAF2], the protein stability index was found to be 5.34 ± 0.34 (treatment: DMSO) and 5.36 ± 0.25 (treatment: MLN4924 1 uM, 8 h).
For EERILHQQVKCIITEEKVCMVCKK [VPS39], the protein stability index runs as follows: (treatment: DMSO) 4.21 ± 0.33; (treatment: MLN4924 1 uM, 8 h) 4.39 ± 0.29.
In the same order, the values of EESASRQRFGEALQDQEKAWGFPE [ELOA2] are 5 ± 0.16 and 5 ± 0.31.
Take EEVVSFVKKNVLVTGGFFGGFLLG [FUNDC2]: the protein stability index came out at 2.36 ± 0.68 (treatment: DMSO) and 2.61 ± 0.73 (treatment: MLN4924 1 uM, 8 h).
For EEWLLVGTKQGHLLLYRIRKDVGC [VPS39], the protein stability index runs as follows: (treatment: DMSO) 3.08 ± 1.3; (treatment: MLN4924 1 uM, 8 h) 2.48 ± 0.5.
Regarding EFFGSASQPAVELVSGSQSALGPP [CLINT1], the protein stability index is 3.96 ± 0.11 (treatment: DMSO) and 3.92 ± 0.51 (treatment: MLN4924 1 uM, 8 h).
As for EFPQFEPQRYPACAQMLPPNLSPH [TRAF3IP2], the protein stability index is 3.22 ± 0.18 (treatment: DMSO) and 3.1 ± 0.36 (treatment: MLN4924 1 uM, 8 h).
In the same order, the values of EFRDDRDLVMALSAGGHGGLLNDT [KCNA4] are 4.06 ± 0.35 and 3.91 ± 0.23.
For EFTELLKVMIHPDPERRPSAMALV [WEE1], the protein stability index by setting is: (treatment: DMSO) 2.23 ± 0.35; (treatment: MLN4924 1 uM, 8 h) 2.06 ± 0.23.
In the case of EFVIIDCRYPYEYEGGHIKGAVNL [CDC25A], the protein stability index was 2.47 ± 0.29 (treatment: DMSO) and 2.3 ± 0.43 (treatment: MLN4924 1 uM, 8 h).
For EGEIATYRHLLEGEDCKLPPQPCA [KRT36], the protein stability index (treatment: DMSO) was 4.6 ± 0.26 and the protein stability index (treatment: MLN4924 1 uM, 8 h) is 4.26 ± 0.24.

The record behind these values is the supplement of paper PMC10567573.
